Publication doi:10.1101/2025.08.31.673340, “Structural and dynamic basis of indirect apoptosis inhibition by Bcl-xL: a case study with Bid” (bioRxiv, 2025)
Changes are numbered by the printed parent chain. One block for each binder: values may come before it.

What was measured:
[1] = target: T1, human Bcl-xL, full length, wild type (human, UniProt Q07817-1 1-233); assay: HDX-MS; conditions Bcl-xL; Bcl-xL + LUVs; Bcl-xL + LUVs + cBid; cBid; proteins (340 pmol) pre-incubated with LUVs 1 h at 37 °C, centrifuged at 20'000 x g, the pellet used for deuterium labelling; settings: both partners purified
T1 construct: human Bcl-xL, full length with the C-terminal hydrophobic helix α9; also called Bcl-xL wt; unlabeled wild type Bcl-xL; source: E. coli, purified from the soluble fraction (chitin resin, anion exchange, Superdex 200)

[2] = target: T1, human Bcl-xL, full length, wild type; assay: co-sedimentation; spin-labeled protein incubated with LUVs alone or with the unlabeled partner; supernatant and pellet fractions quantified by room temperature continuous wave EPR (spin counting); settings: both partners purified

T1 sequence (Q07817 whole entry): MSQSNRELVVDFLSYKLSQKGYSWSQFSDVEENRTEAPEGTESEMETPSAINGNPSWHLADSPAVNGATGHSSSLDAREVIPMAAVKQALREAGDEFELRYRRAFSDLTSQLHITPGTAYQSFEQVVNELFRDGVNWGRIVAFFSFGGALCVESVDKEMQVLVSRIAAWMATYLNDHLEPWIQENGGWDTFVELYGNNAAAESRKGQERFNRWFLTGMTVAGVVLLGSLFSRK

binding result [1]: binds
B1: cBid (mouse Bid cleaved by Caspase 8), wild type (complex)
chain 1: MDSEVSNGSGLGAEHITDLLVFGFLQSSGCTRQELEVLGRELPVQAYWEADLEDELQTD
chain 2: GSQASRSFNQGRIEPDSESQEEIIHNIARHLAQIGDEMDHNIQPTLVRQLAAQFMNGSLSEEDKRNCLAKALDEVKTAFPRDMENDKAMLIMTMLLAKKVASHAPSLLRDVFHTTVNFINQNLFSYVRNLVRNEMD
notes: also called cBid wt; cBidWT; source: E. coli, purified from the soluble fraction (Ni-NTA), cleaved with Caspase 8, purified again with Ni-NTA; not shown: His tag (on Bid before cleavage)

binding result [2]: binds
B2: cBid spin-labeled at the natural cysteine 126 (complex, mouse)
chain 1: B1 chain 1 with C30S
chain 2: B1 chain 2
modifications: MTSL spin label on cysteine 126
notes: p7 fragment of mouse Bid; natural cysteine C30 replaced by serine (singly labeled variant); tBid fragment of mouse Bid with its natural cysteine C126; source: E. coli, purified (Ni-NTA), cleaved with Caspase 8, purified again with Ni-NTA, spin-labeled with MTSL; not shown: His tag (on Bid before cleavage)
